Reference: paper PMC11584650, “An inhibitory segment within G-patch activators tunes Prp43-ATPase activity during ribosome assembly”

Tests used:
Prp43;Tma23M = Prp43;Tma23M (Saccharomyces cerevisiae;Saccharomyces …, UniProt P53131;Q03525 1-767;43-111, |); experiment: fluorescence polarization; 5 mM Mg2+, no nucleotide listed; affinity unaltered vs Prp43 alone; 50 mM HEPES pH 7.5, 50 mM KCl, 5 mM MgCl2, 0.05% Tween-20, 1 mM DTT; 5 nM Cy5-U12 RNA, protein 20 pM to 2.5 uM; temperature not stated; details: protein: recombinant;recombinant; tags: His6 (HRV site; pET47b);GST (pGEX-6P-1; copies: 1;1; single strand
Chain of Prp43;Tma23M (P53131 whole entry, chain 1 of 2): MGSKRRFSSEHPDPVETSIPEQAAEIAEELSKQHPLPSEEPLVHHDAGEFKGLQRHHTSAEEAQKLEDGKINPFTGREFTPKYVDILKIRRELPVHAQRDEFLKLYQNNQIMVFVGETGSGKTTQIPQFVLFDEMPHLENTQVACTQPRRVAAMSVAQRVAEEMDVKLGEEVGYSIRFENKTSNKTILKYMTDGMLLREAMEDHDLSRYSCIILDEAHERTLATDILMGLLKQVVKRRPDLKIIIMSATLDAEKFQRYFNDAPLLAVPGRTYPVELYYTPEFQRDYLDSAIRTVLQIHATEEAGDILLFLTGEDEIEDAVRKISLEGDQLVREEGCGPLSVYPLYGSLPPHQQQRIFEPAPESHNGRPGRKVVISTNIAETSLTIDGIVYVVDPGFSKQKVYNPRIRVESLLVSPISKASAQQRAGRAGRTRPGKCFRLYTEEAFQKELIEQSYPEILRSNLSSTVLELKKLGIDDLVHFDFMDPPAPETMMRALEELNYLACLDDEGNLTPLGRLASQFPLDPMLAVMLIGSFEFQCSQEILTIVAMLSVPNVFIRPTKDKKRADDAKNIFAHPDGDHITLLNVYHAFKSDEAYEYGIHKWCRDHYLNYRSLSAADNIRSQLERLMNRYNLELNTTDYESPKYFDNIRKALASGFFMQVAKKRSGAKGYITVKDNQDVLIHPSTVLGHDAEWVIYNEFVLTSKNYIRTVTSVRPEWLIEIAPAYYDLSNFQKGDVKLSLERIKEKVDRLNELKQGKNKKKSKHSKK
Chain of Prp43;Tma23M (Q03525 43-111, chain 2 of 2): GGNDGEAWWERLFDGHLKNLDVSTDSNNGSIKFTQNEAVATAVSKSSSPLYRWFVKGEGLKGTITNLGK

Prp43;Pxr1M = Prp43;Pxr1M (Saccharomyces cerevisiae;Saccharomyces …, UniProt P53131;P53335 1-767;72-137, |); experiment: as above; details: protein: recombinant;recombinant; tags: His6 (HRV site; pET47b);GST (pGEX-6P-1; copies: 1;1; single strand
Chain of Prp43;Pxr1M (P53131 whole entry, chain 1 of 2): as the sequence (P53131 whole entry, chain 1 of 2) above
Chain of Prp43;Pxr1M (P53335 72-137, chain 2 of 2): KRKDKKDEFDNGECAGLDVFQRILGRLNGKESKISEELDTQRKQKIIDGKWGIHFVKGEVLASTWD

Prp43 = Prp43 (Saccharomyces cerevisiae, UniProt P53131 1-767); experiment: fluorescence polarization; 5 mM Mg2+, no nucleotide listed; 50 mM HEPES pH 7.5, 50 mM KCl, 5 mM MgCl2, 0.05% Tween-20, 1 mM DTT; 5 nM Cy5-U12 RNA, protein 20 pM to 2.5 uM; temperature not stated; details: protein: recombinant; tags: His6 (HRV site; pET47b); single strand
Chain of Prp43 (P53131 whole entry): as the sequence (P53131 whole entry, chain 1 of 2) above

Measured: binding result

UUUUUUUUUUUU (ssRNA) [Cy5-U12 RNA]
binds: all assays above
